In patent publication US20140323392A1 one finds IC50, JRFL pseudovirion entry and IC50, HXB2 pseudovirion entry data, which are given here for four substances.

For test [1], the target named is HIV-1 JRFL envelope glycoprotein gp41 (N-trimer of the prehairpin intermediate) (HIV-1 strain JRFL). Nature of the test: cell-based or functional assay.
Test [2] deals with HIV-1 HXB2 envelope glycoprotein gp41 (N-trimer of the prehairpin intermediate) (HIV-1 strain HXB2) (UniProt P04578). Description: cell-based or functional assay.

On to “C34-PEG2-Chol (from UniProt P04578 628-661) (peptide)”, for which, in test [1], the IC50, JRFL pseudovirion entry worked out at 0.05 nM. The IC50, HXB2 pseudovirion entry in test [2] came to 0.044 nM.
“C34 (from UniProt P04578 628-661) (peptide)” had an IC50, JRFL pseudovirion entry in test [1] of 13.4 nM. This substance had an IC50, HXB2 pseudovirion entry in test [2] of 1.4 nM.
With “C34-PEG80-Chol (from UniProt P04578 628-661) (peptide)”, the IC50, JRFL pseudovirion entry in test [1] turned out to be 0.1 nM. The substance also showed an IC50, HXB2 pseudovirion entry in test [2] of 0.022 nM.
Regarding “C34-PEG11-Chol (from UniProt P04578 628-661) (peptide)”, in test [1], the IC50, JRFL pseudovirion entry was 0.024 nM. Also, the IC50, HXB2 pseudovirion entry in test [2] turned out to be 0.021 nM.
